# From the Immune Epitope Database (IEDB)
# Experiments:
# Assay in all cases: IEDB peptide-MHC binding, purified MHC/competitive/radioactivity; filed as Kd, often an IC50 or EC50 that approximates it; ≥ and ≤ were set here for values at or beyond the usual limits of such assays
# [1] = molecular target: HLA-A*11:01
# [2] = molecular target: HLA-A*31:01
# [3] = molecular target: HLA-A*03:01
# [4] = molecular target: HLA-A*33:01
# [5] = molecular target: HLA-A*68:01
# [6] = source organism: Vaccinia virus WR
# [7] = source organism: SARS coronavirus Tor2
# [8] = source organism: Vaccinia virus Copenhagen
# [9] = source organism: Dengue virus 2 Jamaica/1409/1983
# [10] = source organism: Mammarenavirus juninense
sequence,measurement,setting,value
QTIASKKDK,Kd,[1]; [6],766 nM
same,Kd,[2]; [6],589 nM
same,Kd,[3]; [6],317 nM
same,Kd,[4]; [6],≥ 77700 nM
same,Kd,[5]; [6],265 nM
RMLDTSEKY,Kd,[1]; [6],9870 nM
same,Kd,[2]; [6],≥ 66200 nM
same,Kd,[3]; [6],4980 nM
same,Kd,[4]; [6],≥ 68100 nM
same,Kd,[5]; [6],≥ 77700 nM
RSLQTIASK,Kd,[1]; [6],7.32 nM
same,Kd,[2]; [6],4.3 nM
same,Kd,[3]; [6],1.5 nM
same,Kd,[4]; [6],≥ 77700 nM
same,Kd,[5]; [6],187 nM
RSLQTIASKK,Kd,[1]; [6],22.5 nM
same,Kd,[2]; [6],183 nM
same,Kd,[3]; [6],50.3 nM
same,Kd,[4]; [6],≥ 70000 nM
same,Kd,[5]; [6],1170 nM
SADASTFLK,Kd,[1]; [7],2.97 nM
same,Kd,[2]; [7],99.8 nM
same,Kd,[3]; [7],16.4 nM
same,Kd,[4]; [7],2570 nM
same,Kd,[5]; [7],12 nM
SAGFSLWIY,Kd,[1]; [7],116 nM
same,Kd,[2]; [7],393 nM
same,Kd,[3]; [7],572 nM
same,Kd,[4]; [7],17300 nM
same,Kd,[5]; [7],4040 nM
SINVTIPEQY,Kd,[1]; [6],783 nM
same,Kd,[2]; [6],8190 nM
same,Kd,[3]; [6],19100 nM
same,Kd,[4]; [6],12800 nM
same,Kd,[5]; [6],5200 nM
SISSVLTILY,Kd,[1]; [6],107 nM
same,Kd,[2]; [6],9230 nM
same,Kd,[3]; [6],206 nM
same,Kd,[4]; [6],2240 nM
same,Kd,[5]; [6],907 nM
SLELIIIHTK,Kd,[1]; [6],1300 nM
same,Kd,[2]; [6],130 nM
same,Kd,[3]; [6],16200 nM
same,Kd,[4]; [6],≥ 53400 nM
same,Kd,[5]; [6],8050 nM
SLLSLREVK,Kd,[1]; [7],21.2 nM
same,Kd,[2]; [7],187 nM
same,Kd,[3]; [7],249 nM
same,Kd,[4]; [7],8140 nM
same,Kd,[5]; [7],1190 nM
SLNRQTVSR,Kd,[1]; [6],1350 nM
same,Kd,[2]; [6],7.2 nM
same,Kd,[3]; [6],67.1 nM
same,Kd,[4]; [6],286 nM
same,Kd,[5]; [6],818 nM
SMFWDGMDY,Kd,[1]; [6],0.823 nM
same,Kd,[2]; [6],124 nM
same,Kd,[3]; [6],1.02 nM
same,Kd,[4]; [6],10400 nM
same,Kd,[5]; [6],11.9 nM
STSAFIDTIK,Kd,[1]; [7],15.6 nM
same,Kd,[2]; [7],8800 nM
same,Kd,[3]; [7],1090 nM
same,Kd,[4]; [7],≥ 47100 nM
same,Kd,[5]; [7],25.9 nM
STSPTRTWK,Kd,[1]; [8],0.803 nM
same,Kd,[2]; [8],36.2 nM
same,Kd,[3]; [8],6.72 nM
same,Kd,[4]; [8],6520 nM
same,Kd,[5]; [8],5.87 nM
TLVPQEHYVR,Kd,[1]; [7],436 nM
same,Kd,[2]; [7],989 nM
same,Kd,[3]; [7],130 nM
same,Kd,[4]; [7],1910 nM
same,Kd,[5]; [7],445 nM
TMLFTMLRK,Kd,[1]; [7],20 nM
same,Kd,[2]; [7],901 nM
same,Kd,[3]; [7],7.41 nM
same,Kd,[4]; [7],13200 nM
same,Kd,[5]; [7],1580 nM
TSDSKSIENK,Kd,[1]; [6],534 nM
same,Kd,[2]; [6],14400 nM
same,Kd,[3]; [6],10400 nM
same,Kd,[4]; [6],≥ 34200 nM
same,Kd,[5]; [6],369 nM
TSPGEIKPK,Kd,[1]; [6],1040 nM
same,Kd,[2]; [6],≥ 22500 nM
same,Kd,[3]; [6],≥ 61800 nM
same,Kd,[4]; [6],≥ 77700 nM
same,Kd,[5]; [6],4810 nM
TTFVTPMLR,Kd,[1]; [9],79.2 nM
same,Kd,[2]; [9],16.5 nM
same,Kd,[3]; [9],102 nM
same,Kd,[4]; [9],5.67 nM
same,Kd,[5]; [9],3.77 nM
VMHINSPFK,Kd,[1]; [6],0.224 nM
same,Kd,[2]; [6],19.9 nM
same,Kd,[3]; [6],1.8 nM
same,Kd,[4]; [6],10700 nM
same,Kd,[5]; [6],79.3 nM
VQIDRLITGR,Kd,[1]; [7],3020 nM
same,Kd,[2]; [7],43.6 nM
same,Kd,[3]; [7],1990 nM
same,Kd,[4]; [7],912 nM
same,Kd,[5]; [7],1030 nM
VTDLENRLK,Kd,[1]; [6],25.9 nM
same,Kd,[2]; [6],13600 nM
same,Kd,[3]; [6],2250 nM
same,Kd,[4]; [6],13100 nM
same,Kd,[5]; [6],7250 nM
WVFGSTMNNK,Kd,[1]; [7],208 nM
same,Kd,[2]; [7],5950 nM
same,Kd,[3]; [7],197 nM
same,Kd,[4]; [7],≥ 70000 nM
same,Kd,[5]; [7],3.24 nM
YALINLVQY,Kd,[1]; [6],≥ 77900 nM
same,Kd,[2]; [6],≥ 20500 nM
same,Kd,[3]; [6],≥ 78000 nM
same,Kd,[4]; [6],≥ 77700 nM
same,Kd,[5]; [6],≥ 51800 nM
YFSKQTQTY,Kd,[1]; [6],≥ 27500 nM
same,Kd,[2]; [6],≥ 25000 nM
same,Kd,[3]; [6],17300 nM
same,Kd,[4]; [6],≥ 30400 nM
same,Kd,[5]; [6],1730 nM
YQSFLFWFLK,Kd,[1]; [6],0.706 nM
same,Kd,[2]; [6],18.4 nM
same,Kd,[3]; [6],20.6 nM
same,Kd,[4]; [6],3990 nM
same,Kd,[5]; [6],8.31 nM
YTKFWYVNH,Kd,[1]; [10],17800 nM
same,Kd,[2]; [10],604 nM
same,Kd,[3]; [10],10300 nM
same,Kd,[4]; [10],28.2 nM
same,Kd,[5]; [10],6510 nM
